Assay results reported in publication PMC3847041, “Role of N-Cadherin cis and trans Interfaces in the Dynamics of Adherens Junctions in Living Cells” (PLoS ONE, 2013).

Experiments:
[1] = biological target: N-cadherin-V81D/V174D fluorescent fusion protein (cis double mutant); test: FRET or BRET; acceptor bleach FRET at junctions between living COS7 cells of two mixed populations, one expressing the Venus (acceptor) and the other the Cerulean (donor) copy; trans interaction across the junction; FRET ratio = (IpostDonor - IpreDonor)/IpostDonor
[2] = biological target: N-cadherin-V81D/V174D fluorescent fusion protein (cis double mutant); test: FRET or BRET; ratiometric FRET (Venus to Cerulean fluorescence over time) at a junction between one Venus- and one Cerulean-expressing living COS7 cell; 100 ms interval for 35 sec; baseline 10-15 sec, then the Ca2+ chelator BAPTA added to 20 mM final
[3] = biological target: N-cadherin-W2A fluorescent fusion protein (strand-swap mutant); test: as above
[4] = biological target: N-cadherin-R14E fluorescent fusion protein (X-dimer mutant); test: FRET or BRET; acceptor bleach FRET at junctions between living COS7 cells of two mixed populations, one expressing the Venus (acceptor) and the other the Cerulean (donor) copy; trans interaction across the junction; FRET ratio = (IpostDonor - IpreDonor)/IpostDonor
[5] = biological target: N-cadherin-R14E fluorescent fusion protein (X-dimer mutant); test: FRET or BRET; ratiometric FRET (Venus to Cerulean fluorescence over time) at a junction between one Venus- and one Cerulean-expressing living COS7 cell; 100 ms interval for 35 sec; baseline 10-15 sec, then the Ca2+ chelator BAPTA added to 20 mM final
[6] = biological target: N-cadherin-W2A fluorescent fusion protein (strand-swap mutant); test: FRET or BRET; acceptor bleach FRET at junctions between living COS7 cells of two mixed populations, one expressing the Venus (acceptor) and the other the Cerulean (donor) copy; trans interaction across the junction; FRET ratio = (IpostDonor - IpreDonor)/IpostDonor
[7] = biological target: the molecule itself; test: as above
[8] = biological target: the molecule itself; test: FRET or BRET; ratiometric FRET (Venus to Cerulean fluorescence over time) at a junction between one Venus- and one Cerulean-expressing living COS7 cell; 100 ms interval for 35 sec; baseline 10-15 sec, then the Ca2+ chelator BAPTA added to 20 mM final

Molecule: N-cadherin-V81D/V174D fluorescent fusion protein (cis double mutant) (natural protein)
- FRET ratio (acceptor bleach) [1]: 22.4%
- ratiometric FRET ratio before BAPTA [2]: 99.6%

Molecule: N-cadherin-W2A fluorescent fusion protein (strand-swap mutant) (natural protein)
- ratiometric FRET ratio before BAPTA [3]: 98.6%

Molecule: N-cadherin-R14E fluorescent fusion protein (X-dimer mutant) (natural protein)
- FRET ratio (acceptor bleach) [4]: 14%
- ratiometric FRET ratio after 20 mM BAPTA [5]: 98.8%
- ratiometric FRET ratio before BAPTA [5]: 99.2%

Molecule: N-cadherin-W2A fluorescent fusion protein (strand-swap mutant)
- FRET ratio (acceptor bleach) [6]: 29.4%

B1: N-cadherin-WT fluorescent fusion protein (N-cadherin-Venus / N-cadherin-Cerulean) (natural protein, UniProt P15116 160-906, looked up)
chain: DWVIPPINLPENSRGPFPQELVRIRSDRDKNLSLRYSVTGPGADQPPTGIFIINPISGQLSVTKPLDRELIARFHLRAHAVDINGNQVENPIDIVINVIDMNDNRPEFLHQVWNGSVPEGSKPGTYVMTVTAIDADDPNALNGMLRYRILSQAPSTPSPNMFTINNETGDIITVAAGLDREKVQQYTLIIQATDMEGNPTYGLSNTATAVITVTDVNDNPPEFTAMTFYGEVPENRVDVIVANLTVTDKDQPHTPAWNAAYRISGGDPTGRFAILTDPNSNDGLVTVVKPIDFETNRMFVLTVAAENQVPLAKGIQHPPQSTATVSVTVIDVNENPYFAPNPKIIRQEEGLHAGTMLTTLTAQDPDRYMQQNIRYTKLSDPANWLKIDPVNGQITTIAVLDRESPNVKNNIYNATFLASDNGIPPMSGTGTLQIYLLDINDNAPQVLPQEAETCETPEPNSINITALDYDIDPNAGPFAFDLPLSPVTIKRNWTINRLNGDFAQLNLKIKFLEAGIYEVPIIITDSGNPPKSNISILRVKVCQCDSNGDCTDVDRIVGAGLGTGAIIAILLCIIILLILVLMFVVWMKRRDKERQAKQLLIDPEDDVRDNILKYDEEGGGEEDQDYDLSQLQQPDTVEPDAIKPVGIRRLDERPIHAEPQYPVRSAAPHPGDIGDFINEGLKAADNDPTAPPYDSLLVFDYEGSGSTAGSLSSLNSSSSGGDQDYDYLNDWGPRFKKLADMYGGGDD
notes: a fluorescent protein is inserted into the second extracellular cadherin repeat at position 151 of the mature protein; numbers count on: the mature protein; Self-association in trans: one cell population expresses the Venus copy (FRET acceptor), the other the Cerulean copy (FRET donor); both are written as this one molecule; also called N-cadherin-Venus-WT; WT-N-cadherin; source: COS7 cells, …
- FRET ratio (acceptor bleach) [7]: 19.9%
- ratiometric FRET ratio after 20 mM BAPTA [8]: 89.6%
- ratiometric FRET ratio before BAPTA [8]: 99.6%
